Reference: US9119839B2, “Cancer treatment” (Pfizer Inc., priority 2009, dated 2015)

B1: tremelimumab (antibody, listed as Homo sapiens)
VH: GVVQPGRSLRLSCAASGFTFSSYGMHWVRQAPGKGLEWVAVIWYDGSNKYYADSVKGRFTISRDNSKNTLYLQMNSLRAEDTAVYYCARDPRGATLYYYYYGMDVWGQGTTVTVSSASTKGPSVFPLAPCSRSTSESTAALGCLVKDYFPEPVTVSWNSGALTSGVH
VL: PSSLSASVGDRVTITCRASQSINSYLDWYQQKPGKAPKLLIYAASSLQSGVPSRFSGSGSGTDFTLTISSLQPEDFATYYCQQYYSTPFTFGPGTKVEIKRTVAAPSVFIFPPSDEQLKSGTASVVCLLNNFYPREAKV
notes: anti-CTLA4 monoclonal IgG2 antibody 11.2.1; Arm A of trial A3671009

Legend:
CRP = conditions: treatment with IL-6 / IL-6 receptor inhibitor; cited from earlier work
[1] = test system: previously-untreated, unresectable melanoma; test: Clinical trial A3671009, randomized multicenter Phase 3 study of tremelimumab versus chemotherapy: overall survival by baseline serum CRP category; format: in vivo, human; conditions: for Median OS: tremelimumab 15 mg/kg i.v. every 90 days (Arm A) or dacarbazine/temozolomide (Arm B); for HR (hazard ratio for survival for the two treatment arms): CTLA4 blockade versus chemotherapy
Procedure: Patients randomized to Arm A received intravenous tremelimumab at a dose of 15 mg/kg every 90 days for up to four doses. Patients randomized to Arm B received either dacarbazine at 1000 mg/m^2 or temozolomide at 200 mg/m^2 at the discretion of the investigator. The primary objective of the trial was to compare overall survival of patients in the two treatment arms. Objective tumor response was a secondary endpoint. In the A3671009 trial, serum CRP was measured in most patients before initiation of treatment. In the analysis described below, baseline CRP refers to the result of a CRP assay performed on serum drawn from patients up to 14 days prior randomization into the study. […] The hazard ratio of 1.48 represents a 48% improvement in overall survival in favor of patients who received CTLA4 blockade.

[2] = patients with baseline CRP > 1.5 ULN
[3] = patients with baseline CRP ≦ 1.5 ULN

Molecule	effect on CRP levels (CRP)	Median OS [1, 2] [months]	Median OS [1, 3] [months]	HR (hazard ratio for survival for the two treatment arms) ([1]; baseline CRP > 1.5 ULN, P-value 0.3076)	HR (hazard ratio for survival for the two treatment arms) ([1]; baseline CRP ≦ 1.5 ULN, P-value 0.0037)	improvement in overall survival ([1]; low baseline CRP, in favor of CTLA4 blockade versus chemotherapy) [%]	difference in overall survival between treatment groups ([1]; patients with high baseline CRP, versus chemotherapy (FIG. 2))	difference in overall survival between treatment groups ([1]; patients with low baseline CRP, versus chemotherapy (FIG. 1))
tocilizumab	reduce CRP levels							
dacarbazine or temozolomide [Chemotherapy, reference compound]		6.1	12.7					
B1		6.1	19.1	0.86	1.48	48	no apparent difference	clinically meaningful and statistically significant difference
